In paper PMC7618180 (2025) one finds Kd data, which are given here for 3 molecules.

The labels stand for the following.
B1: isolated ZZ-DZB domain of KCMF1 (domain or fragment)
chain: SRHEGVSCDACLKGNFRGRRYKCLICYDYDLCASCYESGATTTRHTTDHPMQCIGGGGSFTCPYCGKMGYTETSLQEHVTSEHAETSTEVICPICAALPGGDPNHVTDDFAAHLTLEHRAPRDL

Among the targets are ^NLT peptide; ^NRA peptide; ^NRR peptide.
Common to all, as to assay: ITC
For orientation: In ITC the heat of successive injections is recorded.

Test [1] has as its target B1.

In general, Kd refers to the concentration at which binding is half-saturated. Read a high Kd as weaker binding.

^NLT peptide, sequence (Q9P0J7 other isoform, or with tags, fused parts or gaps): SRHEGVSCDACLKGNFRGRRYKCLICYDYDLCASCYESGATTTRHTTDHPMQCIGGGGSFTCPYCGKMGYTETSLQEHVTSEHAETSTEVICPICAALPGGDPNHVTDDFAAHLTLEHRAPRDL

The molecule B1 returned a Kd with ^NLT peptide of 16 µM.

B2: AtUBR4 ZZ domain (domain or fragment)
chain: SSVQYCCDGCSTVPILRRRWHCTVCPDFDLCEACYEVLDADRLPPPHTRDHPMTAIPI
Turning to B2, the Kd is 10 µM with ^NRA peptide and 19 µM with ^NRR peptide.
As to RTGG [^NRT peptide (ITC)], binding in test [1] was characterised by a dissociation constant (Kd) of 7 µM.
